Our source for the % Inhibition, PlGF-1 Measured and RLU values is patent publication US20100015637A1 (AbbVie / Abbott, published 2010).

Assay [1] deals with human PlGF-1 comprising amino acids 1-137 produced in human embryonic kidney cells (human) (UniProt P49763). The experiment in a line: Format 2 …, capture MAb264, detection Pb264; sFlt-1 77 pmol/L (ratio 2.5).
The target is the same in assay [2]. In words: Format 3 Quantikine ELISA, capture MAb264, detection Pb264; sFlt-1 1227 pmol/L (ratio 40). For orientation: In an ELISA, binding on a coated surface is turned into a signal by an enzyme label.
Assay [3] has the same target. In words: Format 2 …, capture MAb264, detection Pb264; sFlt-1 613 pmol/L (ratio 20).
For assay [4] the target is unchanged. In words: Format 1 …, capture 2-826-335, detection 1-255-713; sFlt-1 9200 pmol/L (ratio 300).
For assay [5] the target is unchanged. The experiment in a line: Format 2 …, capture MAb264, detection Pb264; sFlt-1 4600 pmol/L (ratio 150).
Assay [6] shares this target. The experiment in a line: Format 1 …, capture 2-826-335, detection 1-255-713; sFlt-1 920 pmol/L (ratio 30).
Assay [7] has as its target recombinant human PlGF-1 (comprising amino acids 1-131) expressed in E. coli (R&D Systems) (human) (UniProt P49763). In words: … sandwich, capture MAb255, detection MAb826; antigen 60 pg/mL.
Assay [8] concerns the target T1, CHO human PlGF-1 comprising amino acids 1-137 (human PlGF-1-His (1-131), CHO 6305) (human, UniProt P49763 19-221, N-glycans at N21 (completely glycosylated) and N89 (partially glycosylated)).
T1 construct: Mature human PlGF-1 with 6xHis tag (137 amino acids); also called CHO (1-137)
T1 sequence: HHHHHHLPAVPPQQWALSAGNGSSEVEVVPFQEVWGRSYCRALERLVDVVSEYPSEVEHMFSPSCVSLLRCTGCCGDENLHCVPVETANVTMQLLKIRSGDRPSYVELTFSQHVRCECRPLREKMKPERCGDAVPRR
The experiment in a line: … sandwich, capture MAb255, detection MAb826; antigen 60 pg/mL. A digest of the protocol: (§1)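 Human PlGF-1 antigen preparations, including recombinant forms expressed in CHO cells, were tested at 0 to 1500 pg/mL in a sandwich immunoassay. The capture antibody was a monoclonal anti-human PlGF-1 antibody immobilized on magnetic microparticles by passive coating and EDAC cross-linking. Detection used an acridinium ester-labeled monoclonal anti-human PlGF-1 antibody. Signal was recorded as chemiluminescent relative light units (RLU) at each antigen level.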

The target of assay [9] is recombinant human PlGF-1 (comprising amino acids 1-131) expressed in E. coli (R&D Systems) (human) (UniProt P49763). The experiment in a line: … sandwich, capture MAb255, detection pAb264; antigen 750 pg/mL.
Assay [10] has as its target T2, CHO human PlGF-1 fragment (comprising amino acids 17-131; ATCC PTA-8540) (human, UniProt P49763 35-221).
T2 sequence: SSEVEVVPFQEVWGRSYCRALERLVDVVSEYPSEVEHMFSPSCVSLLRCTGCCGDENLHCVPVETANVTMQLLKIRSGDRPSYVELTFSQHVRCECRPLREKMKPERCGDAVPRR
The experiment in a line: … sandwich, capture MAb255, detection pAb264; antigen 15 pg/mL.

Assay [11] has as its target T1, CHO human PlGF-1 comprising amino acids …. The description is as above.
The target of assay [12] is T3, human PlGF-1 fragment (comprising amino acids 17-131) produced in human embryonic kidney cells (human, UniProt P49763 35-221).
T3 sequence: T2 sequence
The description is as above.

For assay [13], the target named is T4, human PlGF-1 comprising amino acids 1-137 produced in human embryonic kidney cells (human, UniProt P49763 19-221).
T4 construct: Mature human PlGF-1 with 6xHis tag; also called HEK (1-137); full length HEK human PlGF-1 (1-137)
T4 sequence: T1 sequence
Described as above.

Assay [14] has as its target T2, CHO human PlGF-1 fragment (comprising …). In words: … sandwich, capture MAb255, detection MAb826; antigen 250 pg/mL. A digest of the protocol: as §1
Assay [15] has as its target T1, CHO human PlGF-1 comprising amino acids …. The description is as above. A digest of the protocol: as §1
In assay [16] the target is T3, human PlGF-1 fragment (comprising amino …). Described as above. In short, it runs like this: as §1
The target of assay [17] is T4, human PlGF-1 comprising amino acids …. The assay is described as above. In short, it runs like this:
as §1

For assay [18], the target named is recombinant human PlGF-1 (comprising amino acids 1-131) expressed in E. coli (R&D Systems) (human) (UniProt P49763). In words: … sandwich, capture MAb255, detection pAb264; antigen 0 pg/mL (blank).
The target is the same in assay [19]. In words: … sandwich, capture MAb826, detection pAb264; antigen 750 pg/mL.

Consider “native sFlt-1, isolated from human placental tissue (from UniProt P17948 27-687) (receptor)”, for which the % Inhibition (as a rule, how much of the control response was suppressed) in assay [1] is 37.2%; in [2], 51.8%; in assay [3], 89.5%; in assay [4], 95.9%; in assay [5], 96.5%; in assay [6] it was 90.7%. For the same molecule, the PlGF-1 Measured in assay [1] was found to be 494 pg/mL; in assay [2], 417 pg/mL; in assay [3] it was 82.9 pg/mL; in assay [4], 42.1 pg/mL; in assay [5] it was 27.5 pg/mL; in [6], 95.1 pg/mL.

B1: monoclonal antibody 1-255-713 (produced by murine hybridoma cell line 1-255-713, ATCC PTA-8536) (antibody, mouse IgG2a, V domains shown)
VH: QVHLQQSGAELMKPGASVKISCKATGYTFSSYWIEWVKQRPGHGLEWIGEILPGSVSNNFNEKFKDKATLTADPSSNTAYIQVSSLTSEDSAVYYCARSTGFYYGGNYFDHWGQGTTLAVSS
VL: DVVMTQTPLSLPVSPGDQASISCRSSQSLVHSNGHTYLHWYLQKPGQSPKLLIYKVSNRFSGVPDRVSGSGSGTDFTLKISRVEAEDLGVYFCSQSTHVPPTFGGGTKLEIKR
notes: also called MAb255
B1: the RLU in assay [7] stood at 83200 RLU; in [8], 42200 RLU; in assay [9], 1.32e+06 RLU; in [10] it was 28700 RLU; in assay [11], 26400 RLU; in assay [12], 32900 RLU. Besides, the RLU was 46700 RLU in assay [13]; 144000 RLU in assay [14]; 153000 RLU in assay [15]; 207000 RLU in assay [16]; 367000 RLU in assay [17]; 14300 RLU in assay [18].

B2: monoclonal antibody 2-826-335 (produced by murine hybridoma cell line 2-826-335, ATCC PTA-8539) (antibody, mouse IgG1, V domains shown)
VH: QVQLKQSGPGLVQPSQSLSITCTVSGFSLTTYGIHWVRQSPGKGLEWLGVMWSGGDTDYDAAFISRLSISKDNSKSQVFFKMNSLQANDTGIYYCARYRFYGMDYWGQGTSVTVSS
VL: AIQMTQSSSSFSVSLGDRVTITCKASEDIYNRFAWYQQKPGNAPRLLISGAASLEAGVPSRFSGSGSGQDYTLSITSLQTEDVATYYCQQYWSTPWTFGGGTKLEIKR
notes: also called MAb826
For B2, the RLU in [19] was 606000 RLU.
